Data on two molecules can be found in article PMC2982130 (Molecular Biology of the Cell, 2010).

The target of series [1] is T1, Recombinant human BMPRII/Fc chimera protein (human, UniProt Q13873 27-150).
T1 sequence: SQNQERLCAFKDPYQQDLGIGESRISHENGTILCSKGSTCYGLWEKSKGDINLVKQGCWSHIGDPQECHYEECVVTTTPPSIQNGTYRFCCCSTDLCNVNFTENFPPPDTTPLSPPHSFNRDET
In words: SPR. Background: SPR reads the build-up and loss of mass on a sensor chip optically.

Series [2] concerns the molecule itself. In words: cross-linking + co-IP.

B1: Recombinant human BMP2 (bone morphogenetic protein 2) (ligand)
chain: QAKHKQRKRLKSSCKRHPLYVDFSDVGWNDWIVAPPGYHAFYCHGECPFPLADHLNSTNHAIVQTLVNSVNSKIPKACCVPTELSAISMLYLDENEKVVLKNYQDMVVEGCGCR
Broadly, the Kd is the free concentration of one partner at which half of the binding sites on the other are occupied at equilibrium, for simple one-to-one binding. With B1, in series [1], the dissociation constant (Kd) was found to be 0.164 µM.

B2: 125I-labeled recombinant human BMP4 (ligand)
chain: SPKHHSQRARKKNKNCRRHSLYVDFSDVGWNDWIVAPPGYQAFYCHGDCPFPLADHLNSTNHAIVQTLVNSVNSSIPKACCVPTELSAISMLYLDEYDKVVLKNYQEMVVEGCGCR
modifications: 125I (radioiodinated, Chloramine T method)
The stoichiometry N is the number of molecules, sites or subunits per partner or assembly. As for B2, in series [2], the “stoichiometry N” value was determined as 2.
